Biological target: PriA (Escherichia coli, UniProt P17888 1-732)
Details: protein: recombinant; tags: N-terminal His; label: 5'-32P on 3L-98 (strand 2); fork 1:2 1:3; ssDNA lagging arm (strand 2)

B1: Fork 1 (structured_DNA)
DNA 1: GCAAGCCTTCTACAGGTCGACCGTCCATGGCGACTCGAGACCGCAATACGGATAAGGGCTGAGCACGCCGACGAACATTCACCACGCCAGACCACGTA
DNA 2: GACTATCTACGTCCGAGGCTCGCGCCGCAGACTCATTTAGCCCTTATCCGTATTGCGGTCTCGAGTCGCCATGGACGGTCGACCTGTAGAAGGCTTGC
DNA 3: TACGTGGTCTGGCGTGGTGAATGTTCGTCGGCGTGCTC
B1 showed a binding signal of 91.9 ± 4.1 % fork shifted.

Source: publication PMC10175261
